Laboratory results: article PMC11665612

What was measured:
[1] = target: heme-binding globin domain of human androglobin (Adgb), Cys132 mutated to Ser (human)
[2] = target: FL-G41C CaM (calmodulin G41C labelled with fluorescein-5-maleimide at Cys41, N-lobe) (UniProt P0DP23); experiment: fluorescence quenching on mixing

Row | k1 (fast) of nitrite reduction, Adgb–CaM complex against Adgb alone [1] | kcat of nitrite reduction by the Adgb–CaM complex (nitrite 2.5–15 mM) [1] | decrease in fluorescence intensity at 531 nm [2] | Substance
1 | 1.8 fold | 0.64 s⁻¹ | – | calmodulin (CaM) (from UniProt P0DP23 1-149) (natural protein)
2 | – | – | 35% | heme-binding globin domain of human androglobin (Adgb), Cys132 mutated to Ser (domain or fragment)
